What was measured:
[1] = target: mini PTPN21-EGFP (UniProt Q16825); assay: MST
[2] = target: T1, PTPN21 FERM domain (FERM^PTPN21) (Homo sapiens, UniProt Q16825); assay: microscale thermophoresis (FERM-EGFP); type: binding
T1 construct: FERM domain, residues 21 to 319 (18 to 319 stated for the crystal); E. coli Rosetta (DE3), His-sumo tag removed; C-terminal EGFP fusion for MST; Flag-tagged for PIP-strips; monomer
T1 sequence (Q16825 21-319): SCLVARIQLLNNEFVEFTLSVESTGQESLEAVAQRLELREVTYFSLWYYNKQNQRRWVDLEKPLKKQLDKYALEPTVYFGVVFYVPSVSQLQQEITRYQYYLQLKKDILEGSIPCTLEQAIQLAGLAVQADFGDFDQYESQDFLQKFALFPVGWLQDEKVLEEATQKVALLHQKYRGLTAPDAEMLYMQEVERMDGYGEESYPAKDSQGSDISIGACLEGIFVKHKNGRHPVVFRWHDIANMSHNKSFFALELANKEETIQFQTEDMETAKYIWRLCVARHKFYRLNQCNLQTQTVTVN

[3] = target: T2, mini PTPN21-EGFP (UniProt Q16825 878-1174; Q16825 878-1174); assay: MST
T2 chain: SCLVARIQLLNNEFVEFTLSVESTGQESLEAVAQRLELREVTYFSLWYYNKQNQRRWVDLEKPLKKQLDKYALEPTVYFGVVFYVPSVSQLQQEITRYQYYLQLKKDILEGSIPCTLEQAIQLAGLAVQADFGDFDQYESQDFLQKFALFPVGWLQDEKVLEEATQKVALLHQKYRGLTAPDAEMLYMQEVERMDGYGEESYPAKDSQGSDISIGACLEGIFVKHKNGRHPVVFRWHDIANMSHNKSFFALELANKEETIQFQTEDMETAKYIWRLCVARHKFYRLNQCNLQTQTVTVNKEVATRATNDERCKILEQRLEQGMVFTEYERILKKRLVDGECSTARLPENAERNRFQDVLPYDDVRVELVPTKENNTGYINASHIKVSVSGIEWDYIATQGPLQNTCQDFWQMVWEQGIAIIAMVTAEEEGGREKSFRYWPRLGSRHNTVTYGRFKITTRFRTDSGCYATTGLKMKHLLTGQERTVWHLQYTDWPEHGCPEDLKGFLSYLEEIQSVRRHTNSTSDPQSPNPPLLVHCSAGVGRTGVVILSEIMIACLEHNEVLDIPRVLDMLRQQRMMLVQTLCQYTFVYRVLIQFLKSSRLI

[4] = target: T2, mini PTPN21-EGFP; assay: MST; + Ins(1,3)P2

| Molecule | Kd [1] [nM] | Kd [2] [nM] | also measured |
| --- | --- | --- | --- |
| HPV18 E7 protein, full length (from UniProt P06788 1-105) (natural protein) | 200 | – | – |
| O=P(O)(O)O[C@@H]1[C@@H](O)[C@H](OP(=O)(O)O)[C@H](O)[C@H](O)[C@H]1O [ins(1,5)P2] | – | ~1320 | – |
| HPV18 E7 CR3 domain (from UniProt P06788 54-105) (domain or fragment) | 49 | – | – |
| O=P(O)(O)O[C@@H]1[C@H](O)[C@H](OP(=O)(O)O)[C@@H](O)[C@H](O)[C@H]1O [ins(1,3)P2] | – | ~6110 | – |
| HPV18 E7 protein, full length (natural protein) MHGPKATLQDIVLHLEPQNEIPVDLLCHEQLSDSEEENDEIDGVNHQHLPARRAEPQRHTMLCMCCKCEARIKLVVESSADDLRAFQQLFLNTLSFVCPWCASQQ | – | – | Kd [3]: 215 nM; Kd [4]: 352 nM |

Reference: article PMC10901363 (Science Advances, 2024)
